Key:
Assay in all cases: SPR Biacore, Ab on HER2 chip
[1] = target: FcγRIIaR (UniProt P12318)
[2] = target: FcγRIIb (UniProt P31994)
[3] = target: FcγRI (UniProt P12314)
[4] = target: FcγRIIaH (UniProt P12318)
Chain of FcγRIIaH (P12318 34-217 limits assumed): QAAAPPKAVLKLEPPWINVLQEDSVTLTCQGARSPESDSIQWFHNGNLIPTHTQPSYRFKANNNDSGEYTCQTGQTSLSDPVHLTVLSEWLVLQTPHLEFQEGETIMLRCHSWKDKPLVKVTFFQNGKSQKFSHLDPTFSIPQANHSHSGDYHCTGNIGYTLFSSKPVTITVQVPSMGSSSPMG

Chain of FcγRI (P12314 16-292 limits assumed): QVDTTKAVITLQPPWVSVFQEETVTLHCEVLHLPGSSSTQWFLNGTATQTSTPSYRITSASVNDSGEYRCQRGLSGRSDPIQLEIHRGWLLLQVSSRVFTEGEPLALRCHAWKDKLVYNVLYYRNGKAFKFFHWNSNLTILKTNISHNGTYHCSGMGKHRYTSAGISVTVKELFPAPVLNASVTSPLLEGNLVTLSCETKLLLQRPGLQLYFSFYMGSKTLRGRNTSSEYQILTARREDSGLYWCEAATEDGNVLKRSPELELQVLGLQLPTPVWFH
Chain of FcγRIIaR (P12318 34-217 H167R limits assumed): as the sequence (P12318 34-217 limits assumed) above, with H134R counted along it
Chain of FcγRIIb (P31994 43-217 limits assumed): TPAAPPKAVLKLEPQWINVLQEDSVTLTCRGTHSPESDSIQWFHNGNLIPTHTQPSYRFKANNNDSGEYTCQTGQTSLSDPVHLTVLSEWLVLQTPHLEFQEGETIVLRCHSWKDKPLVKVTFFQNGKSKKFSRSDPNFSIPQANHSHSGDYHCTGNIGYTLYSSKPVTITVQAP

Kd [1]: 61.4 nM | Kd [2]: 15.5 nM | Kd [3]: 0.532 nM | Kd [4]: 575 nM
B1: one-armed trastuzumab antibody, Scaffold 9, variant v27319 (L242C_I336C/V308I) (antibody, part only; not given: Trastuzumab Fab arm, not shown: another chain or arm of the molecule)
Fc 1: APEFLNGPSVFCFPPKPKDTLMISRTPEVTCVVVDVSQEDPEVKFNWYVDGVEVHNAKTKPREEQYNSTYRVVSVLTILHQDWLNGKEYKCKVSNKGLPKSIEKTCSKAKGQPREPQVYVYPPSRDELTKNQVSLTCLVKGFYPSDIAVEWESNGQPENNYKTTPPVLDSDGSFALVSKLTVDKSRWQQGNVFSCSVMHEALHNHYTQKSLSLSPGK
Fc 2: APELLDGPDVFCFPPKPKDTLMISRTPEVTCVVVDLADEDPEVKFNWYVDGVEVHNAKTKPREEQYNSTYRVVSVLTILHQDWLNGKEYKCKVSNKALPAPIEKTCSKAKGQPREPQVYVLPPSRDELTKNQVSLLCLVKGFYPSDIAVEWESNGQPENNYLTWPPVLDSDGSFFLYSKLTVDKSRWQQGNVFSCSVMHEALHNHYTQKSLSLSPGK
modifications: Engineered intrachain disulphide C242-C336 in each Fc chain.

Reference: patent publication US20230303715A1
